Data: doi:10.1101/2024.11.13.623393

Biological target: microtubule polymers (alpha/beta tubulin)
Assay: co-sedimentation

B1: Smc5-2KE hinge domain (residues 215 to 885, K624E K631E) (domain or fragment)
chain: LRELQGNEQSLQKDLDFKKAKIVHLRQESDKLRKSVESLRDFQNKKGEIELHSQLLPYVKVKDHKEKLNIYKEEYERAKANLRAILKDKKPFANTKKTLENQVEELTEKCSLKTDEFLKAKEKINEIFEKLNTIRDEVIKKKNQNEYYRGRTKKLQATIISTKEDFLRSQEILAQTHLPEKSVFEDIDIKRKEIINKEGEIRDLISEIDAKANAINHEMRSIQRQAESKTKSLTTTDKIGILNQDQDLKEVRDAVLMVREHPEMKDKILEPPIMTVSAINAQFAAYLAQCVDYNTSKALTVVDSDSYKLFANPILDKFKVNLRELSSADTTPPVPAETVRDLGFEGYLSDFITGDKRVMKMLCQTSKIHTIPVSRRELTPAQIKKLITPRPNGKILFKRIIHGNRLVDIEQSAYGSEQVFPTDVSIKQTNFYQGSIMSNEQKIRIENEIINLKNEYNDRKSTLDALSNQKSGYRHELSELASKNDDINREAHQLNEIRKKYTMRKSTIETLREKLDQLKREARKDVSQKIKDIDDQIQQLLLKQRHLLSKMASSMKSLKNCQKELISTQILQFEAQNMDVSMNDVIGFFNEREADLKSQYEDKKKFVKEMRDTPEFQSWMREIRSYDQDTKEKLNKVAEKYEEEGNFNLSFVQDVLDKLESEIAMVNHDES
B1 showed a fold reduction in binding affinity against wild-type Smc5 of 3 fold.
